Experimental data as given in patent EP4624493A1 (Jiangsu Hengrui Pharmaceuticals Co., Ltd., dated 2025).

Biological target: T1, human HGFR protein extracellular domain with the His tag (human, UniProt P08581 25-932)
T1 construct: also called HGFR-His
Test: SPR Biacore T200, comparison of KD values

T1 sequence (P08581 other isoform, or with tags, fused parts or gaps): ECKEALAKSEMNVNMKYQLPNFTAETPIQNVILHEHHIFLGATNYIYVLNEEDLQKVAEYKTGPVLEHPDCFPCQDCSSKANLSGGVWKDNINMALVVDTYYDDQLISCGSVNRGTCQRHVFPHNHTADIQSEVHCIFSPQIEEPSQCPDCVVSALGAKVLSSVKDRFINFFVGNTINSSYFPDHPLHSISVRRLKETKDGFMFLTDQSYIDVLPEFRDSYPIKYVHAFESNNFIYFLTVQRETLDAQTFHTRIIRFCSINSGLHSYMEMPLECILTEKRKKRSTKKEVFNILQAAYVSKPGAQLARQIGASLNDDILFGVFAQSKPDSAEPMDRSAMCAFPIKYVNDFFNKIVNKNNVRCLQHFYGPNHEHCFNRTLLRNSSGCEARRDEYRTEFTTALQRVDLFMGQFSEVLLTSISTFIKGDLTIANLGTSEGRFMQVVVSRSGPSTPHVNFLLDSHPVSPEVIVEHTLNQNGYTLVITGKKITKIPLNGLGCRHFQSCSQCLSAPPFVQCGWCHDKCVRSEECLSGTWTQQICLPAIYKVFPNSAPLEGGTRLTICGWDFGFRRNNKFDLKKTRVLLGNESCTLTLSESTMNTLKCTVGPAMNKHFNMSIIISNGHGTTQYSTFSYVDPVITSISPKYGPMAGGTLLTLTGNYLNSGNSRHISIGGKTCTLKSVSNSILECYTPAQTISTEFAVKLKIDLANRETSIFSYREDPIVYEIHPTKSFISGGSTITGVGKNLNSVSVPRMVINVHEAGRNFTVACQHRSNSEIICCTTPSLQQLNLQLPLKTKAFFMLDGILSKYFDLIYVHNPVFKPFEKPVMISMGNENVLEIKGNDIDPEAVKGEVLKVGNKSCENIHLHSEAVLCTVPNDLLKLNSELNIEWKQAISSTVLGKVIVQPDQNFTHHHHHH

fold affinity against the parent antibody Ab10: ≥ 4 fold
B1: Ab10.1, mutant antibody of Ab10 (anti-HGFR) (antibody, V domains shown)
VH: QVQLVESGGGVVQPGRSLRLSCAASGFSLSDYGVHWVRQAPGKGLEWLAVIWSGGSTNYADAFVSRLTISKDNSKNTVYLQMNSLRAEDTAVYYCARNHDNPYIYAMDYWGQGTTVTVSS
VL: DIVLTQSPDSLAVSLGERATINCRADKSVSTSTYNYLHWYQQKPGQPPKLLIYRGSFLATGVPDRFSGSGSGTDFTLTISSLQAEDVAVYYCQHSRDLPPTFGQGTKLEIK
